From the RNAGym collection of RNA variant scans (doi:10.1073/pnas.2313332121)
This sample holds only a part of the variants without activity.

B1: TPR 5TU (parent)
chain: GGAUCUUCUCGAUCUAACAAAAAAGACAAAUCUGCCACAAAGCUUGAGAGCAUCUUCGGAUGCAGAGGCGGCAGCCUUCGGUGGCGCGAUAGCGCCAACGUUCUCAACUAUGACACGCAAAACGCGUGCUCCGUUGAAUGGAGUUUAUCAUG

Variants of: B1
Experiment: polymerase ribozyme fitness, log enrichment relative to wild type (log ratio); higher = more active; in vitro selection for triplet polymerase activity
Summary of the method: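 Only genotypes with ≥10 input reads and ≥1 read per output were kept after Illumina sequencing of input and output libraries. These libraries were PCR-built, transcribed mutants of each subunit of a heterodimeric triplet polymerase ribozyme, each put through one triplicate in vitro selection round with frozen incubation at −7 °C, gel excision of extended constructs, streptavidin-bead capture and RT-PCR. Fitness is a logarithmic ratio of genotype enrichment to wild-type enrichment, from inverse-variance-weighted replicate averages, with the logarithm in base 2.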

Row | Variant | polymerase ribozyme fitness (log ratio)
1 | C5G A23C G68C G81C G83C U101G C118U G141U | ≤ -4.2
2 | A3U A24U A66U C93G A107C | ≤ -4.2
3 | C5G U90G C93A C116G A142C | ≤ -4.2
4 | C5U C38U C54U G94U A115U A119G G136U A147U | -3.8
5 | A3U A49G G84C | -3.89
6 | U4C A23C A37G U53A | ≤ -4.2
7 | C5G C32A C76A U109G G141C | ≤ -4.2
8 | U4C A16U G83U U90C A113U U148C | ≤ -4.2
9 | C5A C85U A97U G143A | -1.87
10 | A3G C18U A49C C57U C85G G143U | ≤ -4.2
11 | A3G C43U G65U G68A G71A G86U G112U G152A | ≤ -4.2
12 | A3U A41U | -1.29
13 | A3U G42U G48C C75G G86A C108A | ≤ -4.2
14 | U4A U6G A22U U31G C35U U56A G68C C95U C125G U144C | ≤ -4.2
15 | C5U C85G | -1.7
16 | C5U A22U C85A U135A | -0.0168
17 | A3U A19U | -0.0693
18 | U4C C85A | -1.34
19 | C5U A12C A40C U61A C95U | -2.18
20 | A3U G92A A113G G133U A142U U146G | ≤ -4.2
21 | C5U A22C G83C C93U U101G C116A | -2.06
22 | C5A C93U C105U C149G | -3.96
23 | C5A A12C A19U U102G C116A A119G U135A G136C | ≤ -4.2
24 | A3G C38G G42U G59C G70C U78C C87A | ≤ -4.2

Row | Variant | polymerase ribozyme fitness (log ratio)
25 | C5U A16C A17U C27U A49C U55G | ≤ -4.2
26 | U4G G84U A107U G140A | ≤ -4.2
27 | C5G A23G A49U U77G G86A A137G | ≤ -4.2
28 | A3U G92A G136C | -4
29 | A3U U55A G84A | -0.911
30 | U4A A12U G84A A89G | -0.965
31 | C5G A24U G81C | -0.313
32 | C5A A28G G34C G74A U82A G86A C93A A97C | ≤ -4.2
33 | C5G G25C C54A C75G G83U | ≤ -4.2
34 | U4C G25U U61G G86U C93U G133C | ≤ -4.2
35 | U4G A73G A97G | 0.0284
36 | C5A U7C G92C U139G | -1.27
37 | C5G C32U G84U | -3.82
38 | A3U U15C G81U A97U G128U | -3.58
39 | C5A C57U G59C C96G U101G | -0.41
40 | C5A C93G | -2.32
41 | A3U C14G A28C A91U A97C A122C | ≤ -4.2
42 | C5A U55G G68C | ≤ -4.2
43 | A3U C93U | -1.81
44 | C5U A16U C87A A106C | ≤ -4.2
45 | U4G U6G A22C A73G G83C | ≤ -4.2
46 | C5A C14G A22G A49C G50U G58C | -4.18
47 | U4C A52G G58U | -0.303
48 | A3U U55A | -0.84

Row | Variant | polymerase ribozyme fitness (log ratio)
49 | C5G C38G G68C U135A G141A | ≤ -4.2
50 | A3U G11C U44A G58C G62A G68A G94C | ≤ -4.2
51 | C5A A22U C75U C76A G88A A89C A91G C105U A119G U144G | ≤ -4.2
52 | A3G U4A A17C A52G G94C U102C C131U | -1.71
53 | U4G C38U C93G | -2.52
54 | C5G C32U A91G A115G | ≤ -4.2
55 | U4C C96A | -0.253
56 | C5G U7A C93U A106C | -3.03
57 | C5G A39G C51U A106G | ≤ -4.2
58 | C5U C8G A12G A19U U55G C87A C96G A147C | ≤ -4.2
59 | A3G U33G U55A A66C C108U | ≤ -4.2
60 | U4G U7C A16G C96G | -2.73
61 | C5U A17G A49G U53G C85A A122C G141C | ≤ -4.2
62 | U4G U15G A30G A41U G46U C69G C76U C93G G143C | ≤ -4.2
63 | C5G A52C G58A C93A C118U | -3.09
64 | C5U A23G C32A C57G G59A C87G C95A U134C | ≤ -4.2
65 | C5G A20G C75U C87U A119G A142G | -3.16
66 | C5U A66G C87U | ≤ -4.2
67 | A3U A17U U55G G84A C96A G133U G152C | ≤ -4.2
68 | C5A G94U C95A C123A U135C | -3.89
69 | A3U A39G A52G U144C | -3.97
70 | C5G A49G U61A C85G | ≤ -4.2
71 | U4G A20G C35U G94C A97G C118A A137G A142U | -4.11
72 | U4C A49U G94A A106G C123U | -1.94

Row | Variant | polymerase ribozyme fitness (log ratio)
73 | A3U U15G A19C A39C U44G U55A C57U A60G C63A G84A A110U A120C | ≤ -4.2
74 | A3U A37U U56A A97U | -3.82
75 | C5U C93G | -3.16
76 | U4A C8U A16U A40C U53A C57U C87A A97U U145G | ≤ -4.2
77 | A3U G133U U135G | ≤ -4.2
78 | C5U C18U C76G C105U U148A | ≤ -4.2
79 | C5U A121G | 0.614
80 | A3U C105G | -1.75
81 | C5U A20U C57U G68A C72U G92A | ≤ -4.2
82 | A3U A16C A20C A47U U53G G86A A110G | ≤ -4.2
83 | C5G G141C | -0.606
84 | A3G U53C A60C G62C A91G U104C C118A A120U U134G | ≤ -4.2
85 | U4G U13G C93U A120G G143A U148C | ≤ -4.2
86 | C5A C27U U33G C79A | ≤ -4.2
87 | C5A A17U G83A U146G | -0.599
88 | A3U G67U A107U | ≤ -4.2
89 | C5U C10G C35U C75G U102G A107U C118A | ≤ -4.2
90 | U4A A20C A28C A29G C87A G141U | -4.08
91 | C5G A16G A21U C93U U101G A110C C116U G124C | ≤ -4.2
92 | C5U A41U G83A | -1.02
93 | U4A A24U C57A C93U G94U G141U | -2.67
94 | C5A A113U | -2.74
95 | C5A C54U A73G A119G G136A | -0.371
96 | A3G U9G C36A G67A G68C A73G U135G | ≤ -4.2

Row | Variant | polymerase ribozyme fitness (log ratio)
97 | A3U C8A A39U A91G U111A A115U G117U | ≤ -4.2
98 | U4G A97G C103G | -3.15
99 | C5A A21C G74A U82G G92U | ≤ -4.2
100 | C5A C36U C79U A121G | ≤ -4.2
101 | C5U C38U C85G U101C | -1.38
102 | C5A A89G C95G C132U | -3.03
103 | C5G C14G A49G | -3.17
104 | U4A G48U C57G C93U G136A U146G | -2.55
105 | U4A G92A G141A | -3.96
106 | U4G G58A | 0.794
107 | A3U G58C G59C C96U C131A | -3.63
108 | C5A G11C C32G G92U C99A C125G G136U G141U | ≤ -4.2
109 | A3U U7A C14A A41C U45G C69A C87A G94A A121C | ≤ -4.2
110 | U4A C38U A41U G59A A137U | -4.07
111 | C5A A16U G59U | -1.5
112 | U4A C27U G83C G117A A122G U146A | -3.14
113 | A3G C18U G50C C87G A97G C99U U146G | ≤ -4.2
114 | U4G G11C A40U G50C G83U | ≤ -4.2
115 | U4G G11C U44G | ≤ -4.2
116 | C5G C36A G58A A73G C85U | ≤ -4.2
117 | U4G C57A A73G C87U | -0.214
118 | U4C U6G G74C G80C G92U C103G A106U | ≤ -4.2
119 | C5A U9C G42A A52G A66C G74A U82A A89U C123A C129A G133U | ≤ -4.2
120 | U4C A24U G81A C85U A89C | -0.962

Row | Variant | polymerase ribozyme fitness (log ratio)
121 | U4A C54A C95A A138C | ≤ -4.2
122 | C5G C54G U56G C95U C125U C129A G133U | ≤ -4.2
123 | U4A C36A A52C A73G C95U | ≤ -4.2
124 | C5A C18U G86U | -1.4
125 | U4C U56G C63U C93G | -3.11
126 | C5A A21C C35U G74C G128U U139G | ≤ -4.2
127 | U4G A41U G50C C85G | ≤ -4.2
128 | U4G C14G C76G | ≤ -4.2
129 | U4A A19C | 0.332
130 | A3U G48C C51U C57U C95A A115C | ≤ -4.2
131 | C5G C35U G59C C87U G100U C125G G133A U145C | ≤ -4.2
132 | A3U A20U C32U G70U G84U A120C | ≤ -4.2
133 | C5A G58A G86U | -1.52
134 | U4G A12G A22U U53A C72G G100A U111G C125U | ≤ -4.2
135 | U4A A22U A40G U145A | -3.05
136 | U4C G58A G83A C85U | -1.97
137 | U4A G143U | -3.47
138 | C5G U55G C79G C85U U130G | ≤ -4.2
139 | C5G G136A | 0.0107
140 | C5G A41C U55A G58A A60G | -1.54
141 | C5G C8A C27U A49C U56A G94A C95G U109G | ≤ -4.2
142 | U4G U31A C54U G86C G92U U148G | ≤ -4.2
143 | C5A C27A C87A U109A G126A | ≤ -4.2
144 | C5A G59C C96A A98U | -0.127

Row | Variant | polymerase ribozyme fitness (log ratio)
145 | A3U G46C U77C G86U A98U A121U U127A | -4.08
146 | A3U C108U | -3.59
147 | A3U G143U | -2.76
148 | A3G U33C G58C C116G U139A G141U U146C | ≤ -4.2
149 | U4A A121G A137C C149U | -4.16
150 | C5A C99U | -0.267
151 | U4G A37U G81A C99A A106C U127G | ≤ -4.2
152 | C5G G67U G70C G86A C132G | ≤ -4.2
153 | A3U C10U C54A U55A | -1.97
154 | C5A G59A C76U U77A G84A C118G C132G | ≤ -4.2
155 | C5U A30G A52U C76G G94A C118U U148A | ≤ -4.2
156 | U4G G42C C76G U90C C93G A113C | ≤ -4.2
157 | U4C A21G G42A G48C G50C A64U G84C U102G U127A | ≤ -4.2
158 | C5A C27U U55G G83A G92U U148A | ≤ -4.2
159 | C5A G92C | -1.76
160 | A3U A142C | -1.59
161 | C5G U15A U45G U82C G92A A150U | ≤ -4.2
162 | U4G C10U G83U A98U C105U | -0.982
163 | U4C G11U U53C | -2.27
164 | U4C U9A A41C G48C C51A G68A G83C | ≤ -4.2
165 | C5A U9C C10G A26U U90G A137G A142U | ≤ -4.2
166 | U4G A52C G83A | -2.69
167 | C5U C38G A66U G94C | ≤ -4.2
